# B1: CPEB3 Ribozyme (parent)
# chain: UAACAGGGGGCCACAGCAGAAGCGUUCACGUCGCAGCCCCUGUCAGAUUCUGGUGAAUCUGCGAAUUCUGCUGUAUAUCUC
# Variants of: B1
# Experiment: self-cleavage, relative activity (ratio to wild type); higher = more cleavage; in vitro, sequencing
# Outline: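 Libraries of CPEB3 self-cleaving ribozyme mutants came from rounds of error-prone PCR and carried barcodes, which DNA sequencing matched to variants. In vitro transcription used T7 RNA polymerase at 37°C for 5 hours, with a further 15 min in DNase I before EDTA stopped the reaction; the ribozymes cleaved during both steps. The RNA was reverse transcribed with template switching and sequenced on Illumina. Relative activity is the cleaved/total read fraction of a variant divided by that of the unmutated ribozyme, averaged over three batches with at least 5 reads.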
row,Variant,self-cleavage
1,G19U U67A,0.13
2,G19U U67C,0.13
3,G19U U31C,0.2
4,G19C U67C,0.21
5,G19A A57G,0.26
6,G19U U48C,0.2
7,G19U U48A,0.2
8,G19U U49A,0.08
9,G19U U49C,0.15
10,G19U U76A,0.18
11,A18U U69G,1.14
12,A18U U69C,0.47
13,A18U U69A,1.19
14,A18G U80C,0.86
15,A18G U80A,0.9
16,A18U U26C,0.26
17,A18U U26A,0.31
18,A18U U26G,0.07
19,A18U A56C,0.21
20,A18U A56U,0.31
21,A18U A56G,0.3
22,A18U U72C,0.42
23,A18U U72G,0.5
24,A18U U72A,0.19

row,Variant,self-cleavage
1,A18U G63U,0.57
2,A18U G63C,0.37
3,A18U G63A,0.48
4,G19A U72C,0.18
5,G19U U43A,0.29
6,G19U U43C,0.1
7,G19U C81U,0.34
8,A18U A21U,0.28
9,A18U A21G,0.25
10,A18U A21C,0.2
11,G19A A65G,0.51
12,A18U A47G,0.37
13,A18U A47U,0.3
14,G19U A28U,0.08
15,G19U A28G,0.14
16,G19U U80A,0.19
17,G19U U80C,0.26
18,A18U U78C,0.38
19,A18U U78A,0.36
20,A18U A28C,0.15
21,A18U A28U,0.29
22,A18U A28G,0.26
23,A18U G42C,0.18
24,A18U G42A,0.36

row,Variant,self-cleavage
1,G19A U80C,0.27
2,G19A U80A,0.58
3,G19A U51A,0.31
4,G19A U51C,0.32
5,A18U G52A,0.39
6,A18U G52U,0.39
7,A18U G61C,0.14
8,A18U G61U,0.28
9,A18U G61A,0.3
10,A18U C44U,0.2
11,A18U C44A,0.15
12,A18U C44G,0.24
13,A20C A56C,0.22
14,A20C A56G,0.27
15,A18U C79A,0.75
16,A18U C79U,0.26
17,G19A U69A,0.14
18,G19A U69C,0.13
19,G19U U74C,0.56
20,G19U A20G,0.29
21,G19U A20U,0.42
22,G19A C40G,0.1
23,G19A C40U,0.21
24,G19A,0.29

row,Variant,self-cleavage
1,G19U,0.27
2,G19C,0.29
3,G19C G53A,0.09
4,G19A C62U,0.36
5,A20C A47G,0.45
6,A20C A47U,0.47
7,G19C A56U,0.19
8,G19C A56G,0.07
9,G19U G42A,0.18
10,A18U U48A,0.19
11,A18U U48C,0.28
12,A18U U66A,0.29
13,A18U U66C,0.29
14,A18U U54A,0.54
15,A18U U54C,0.32
16,A18U U54G,0.34
17,A18U A57U,0.33
18,A18U A57G,0.37
19,G19C G30C,0.25
20,G19A U78A,0.47
21,G19C C68U,0.63
22,G19U C32G,0.19
23,G19C A75U,0.29
24,A18U G22U,0.24

row,Variant,self-cleavage
1,A18U G36U,0.19
2,A20C A45G,0.33
3,A20C A45U,0.2
4,A20C A45C,0.35
5,A18U G73C,0.49
6,A18U G73A,0.61
7,G19C U25C,0.06
8,G19A U26C,0.31
9,G19C U49A,0.36
10,G19U A64U,0.15
11,G19U A77U,0.12
12,A18U U49C,0.22
13,A18U U49A,0.38
14,A18U U25C,0.26
15,A18U U25A,0.19
16,A18U U25G,0.08
17,G19A A20U,0.11
18,A18U U76G,0.3
19,A18U U76C,0.39
20,A18U U76A,0.36
21,A18U A75U,0.5
22,A18U A75G,0.38
23,A18U G30A,0.15
24,A18U G30U,0.17

row,Variant,self-cleavage
1,A20C C27A,0.37
2,G19U C37U,0.38
3,G19U C37A,0.31
4,A20C A28G,0.24
5,G19U G61C,0.13
6,G19U G61A,0.3
7,A20C A57G,0.09
8,G19A G36C,0.14
9,A18U,0.4
10,A18U C34U,0.25
11,A18U C34A,0.23
12,A20C A65G,0.42
13,A18G U67A,0.31
14,A18G U67C,0.26
15,A18G U67G,0.28
16,A18G U66C,0.29
17,A18G U66A,0.31
18,G19A U41C,0.22
19,A18U A64G,0.31
20,A18U A64U,0.28
21,A18G U72C,0.68
22,A18G U72G,0.29
23,A18G U72A,0.35
24,G19C A20U,0.4

row,Variant,self-cleavage
1,G19C C37U,0.16
2,G19A A21U,0.1
3,A18U C39A,0.24
4,A18U C39U,0.3
5,A18G U69A,0.48
6,A18G U69G,0.49
7,A18G U69C,1.18
8,G19A A75G,0.09
9,A18U U43A,0.64
10,A18U U43G,0.14
11,A18U U43C,0.26
12,A18U A35U,0.22
13,A18U A35G,0.7
14,A18U A35C,0.34
15,A18U U60C,0.22
16,A18U U60A,0.3
17,A18G U78A,0.82
18,A18G U78C,0.82
19,A18G U78G,0.53
20,G19C A77G,0.24
21,A18U C59U,0.23
22,A18U C59G,0.15
23,A18U C59A,0.17

# Source: the RNAGym collection of RNA variant scans (doi:10.1093/nar/gkz1192)
